These results are taken from article PMC6609622, “Poly(ADP-ribose) polymerase-1 antagonizes DNA resection at double-strand breaks”.

This data set has as its target PARP-1 (human, UniProt P09874 1-1014). Nature of the data set: EMSA; 5 and 30 uM NAD+; remains bound; EMSA: 20 mM Na-HEPES pH 7.5, 0.1 mM DTT, 0.05% Triton X-100, 100 ug/mL BSA, 5 mM MgCl2, 2 mM ATP, 100 nM DNA, 37 C 10 min, then 0.2% glutaraldehyde 15 min; DNA. Conditions: protein: recombinant; label: 32P; blunt. Background: Mobility shift assays separate free from complexed probe on a gel.

Chain of PARP-1 (P09874 whole entry): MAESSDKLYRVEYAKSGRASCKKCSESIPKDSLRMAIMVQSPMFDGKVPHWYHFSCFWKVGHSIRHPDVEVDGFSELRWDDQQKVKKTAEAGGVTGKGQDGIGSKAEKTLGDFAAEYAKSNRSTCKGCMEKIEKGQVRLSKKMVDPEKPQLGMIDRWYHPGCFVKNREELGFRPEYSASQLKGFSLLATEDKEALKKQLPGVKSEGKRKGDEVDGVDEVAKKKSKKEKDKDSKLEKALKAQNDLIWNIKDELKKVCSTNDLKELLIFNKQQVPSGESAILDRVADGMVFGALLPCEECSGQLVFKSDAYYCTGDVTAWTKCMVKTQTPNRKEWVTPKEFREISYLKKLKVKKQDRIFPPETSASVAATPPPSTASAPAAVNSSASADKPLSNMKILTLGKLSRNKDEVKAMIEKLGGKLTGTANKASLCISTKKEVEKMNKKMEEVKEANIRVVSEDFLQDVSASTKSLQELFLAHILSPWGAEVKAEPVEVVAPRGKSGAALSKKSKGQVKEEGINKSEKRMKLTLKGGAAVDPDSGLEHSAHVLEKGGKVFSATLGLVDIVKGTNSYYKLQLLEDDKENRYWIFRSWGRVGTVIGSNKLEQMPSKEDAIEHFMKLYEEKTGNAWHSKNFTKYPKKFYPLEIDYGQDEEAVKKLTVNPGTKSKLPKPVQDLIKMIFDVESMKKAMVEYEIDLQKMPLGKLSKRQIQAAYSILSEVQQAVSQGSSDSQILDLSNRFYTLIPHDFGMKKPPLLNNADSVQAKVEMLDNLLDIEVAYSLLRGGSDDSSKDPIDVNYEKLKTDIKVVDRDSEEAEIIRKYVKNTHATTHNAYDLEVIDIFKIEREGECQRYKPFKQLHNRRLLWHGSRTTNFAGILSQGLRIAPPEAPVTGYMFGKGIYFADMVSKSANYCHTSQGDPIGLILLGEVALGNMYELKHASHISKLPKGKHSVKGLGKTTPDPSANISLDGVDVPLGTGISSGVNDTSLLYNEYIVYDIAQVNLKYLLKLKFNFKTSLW

B1: JYM696/JYM698 (dsDNA)
DNA 1: GGGCGAATTGGGCCCGACGTCGCATGCTCCTCTAGACTCGAGGAATTCGGTACCCCGGGTTCGAAATCGATAAGCTTACAGTCTCCATTTAAAGGACAAG
DNA 2: CTTGTCCTTTAAATGGAGACTGTAAGCTTATCGATTTCGAACCCGGGGTACCGAATTCCTCGAGTCTAGAGGAGCATGCGACGTCGGGCCCAATTCGCCC
With B1, the binding result is recorded as “binds”.
